According to the supplement of paper PMC7125110:
± gives the standard error. For part of these data: Fewer inactive variants are shown than the library holds.

B1: glmS ribozyme (parent)
chain: AUAAAAGCGCCAGAACUACAGAAAUGUAGUUGACGAGGAGGAGGUUUAUCGAAUUUUCGGCGGAUGCCUCCAAA

Tests used:
Conditions in all cases: with glucosamine-6-phosphate
[1] = variants of: B1; test: kcat; higher = faster cleavage; RNA array
Procedure, shortened: (§1)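 Weighted Michaelis–Menten fits across concentrations supplied kcat and KM, based on kobs from one- or two-exponential decay fits to normalised per-tile medians. The data came from barcoded ribozyme variants transcribed in situ by E. coli RNA polymerase on sequenced MiSeq chips and tracked at 37 °C by a hybridised Cy3 probe. Glucosamine-6-phosphate (40 μM to 10 mM) in HEPES/KCl/Mg(OAc)2 buffer was flowed in.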

[2] = variants of: B1; test: KM; higher = weaker cofactor use; RNA array
Procedure, shortened: as §1

[3] = variants of: B1; test: self-cleavage kobs at 40 uM GlcN6P; higher = faster cleavage; RNA array
Procedure, shortened: as §1

[4] = variants of: B1; test: self-cleavage kobs at 160 uM GlcN6P; higher = faster cleavage; RNA array
Procedure, shortened: as §1

[5] = variants of: B1; test: self-cleavage kobs at 640 uM GlcN6P; higher = faster cleavage; RNA array
Procedure, shortened: as §1

[6] = variants of: B1; test: self-cleavage kobs at 2500 uM GlcN6P; higher = faster cleavage; RNA array
Procedure, shortened: as §1

[7] = variants of: B1; test: self-cleavage kobs at 10000 uM GlcN6P; higher = faster cleavage; RNA array
Procedure, shortened: as §1

| Variant | kcat [1] [s⁻¹] | KM [2] [µM] | self-cleavage kobs at 40 uM GlcN6P [3] [s⁻¹] | self-cleavage kobs at 160 uM GlcN6P [4] [s⁻¹] | self-cleavage kobs at 640 uM GlcN6P [5] [s⁻¹] | self-cleavage kobs at 2500 uM GlcN6P [6] [s⁻¹] | self-cleavage kobs at 10000 uM GlcN6P [7] [s⁻¹] |
| --- | --- | --- | --- | --- | --- | --- | --- |
| A39G U54C | 0.0135 ± 0.004 | 759 ± 340 | 0.000807 ± 0.00031 | 0.00183 ± 0.0008 | 0.00774 ± 0.0024 | 0.00946 ± 0.0035 | – |
| G37C G60C | < 1e-05 | – | – | – | – | – | < 1e-05 |
| A39G U45C | 0.0102 ± 0.0019 | 3810 ± 980 | 0.00012 ± 2.4e-05 | – | 0.00126 ± 0.00034 | 0.00381 ± 0.0011 | 0.00774 ± 0.0016 |
| A39C A42U | 0.000187 ± 4e-05 | – | – | – | – | 0.000135 ± 2.9e-05 | 0.000143 ± 2.2e-05 |
| A39G C58A | 0.00088 ± 0.00013 | 4140 ± 1100 | – | 4.38e-05 ± 1.9e-05 | 0.000129 ± 3e-05 | 0.000275 ± 6.4e-05 | 0.000642 ± 7.7e-05 |
| A36G U69A | 1.02e-05 ± 2.2e-06 | – | – | – | – | – | – |
| A39G A52U | 0.00125 ± 0.00024 | – | < 1e-05 | – | 4.99e-05 ± 2.1e-05 | 0.000222 ± 4.6e-05 | 0.00054 ± 7.6e-05 |
| A39G U65A | 0.0108 ± 0.0047 | – | 0.000266 ± 6.6e-05 | – | 0.00201 ± 0.00056 | 0.00741 ± 0.0031 | 0.00966 ± 0.0034 |
| A39C U57A | 2.13e-05 ± 6e-06 | – | < 1e-05 | – | – | 2.6e-05 ± 1.3e-05 | – |
| G38U C61G | < 1e-05 | – | – | < 1e-05 | – | – | – |
| A39U G62A | < 1e-05 | – | < 1e-05 | < 1e-05 | < 1e-05 | – | – |
| G38U C58G | < 1e-05 | – | – | – | – | – | – |
| C34U G38A C71U | < 1e-05 | – | < 1e-05 | < 1e-05 | – | < 1e-05 | – |
| G37C C58A G66A C70A C71A | 2.19e-05 ± 8.6e-06 | – | – | – | – | – | – |
| A36C C70U | < 1e-05 | – | < 1e-05 | – | – | – | – |
| G38A C71G | < 1e-05 | – | – | – | – | – | – |
| G35C C50G G60U | 3.38e-05 ± 1.4e-05 | – | – | 5.86e-05 ± 1.9e-05 | – | – | – |
| G37A U69G | 2.13e-05 ± 3.7e-06 | – | – | – | – | – | – |
| G37A U69A | 7.14e-05 ± 8.5e-06 | 7590 ± 2000 | – | – | – | – | 4.06e-05 ± 8.5e-06 |
| A36G C71G | 1.32e-05 ± 3.6e-06 | – | – | – | < 1e-05 | – | – |
| G37A G59A | < 1e-05 | – | < 1e-05 | – | – | – | – |

| Variant | kcat [1] [s⁻¹] | KM [2] [µM] | self-cleavage kobs at 40 uM GlcN6P [3] [s⁻¹] | self-cleavage kobs at 160 uM GlcN6P [4] [s⁻¹] | self-cleavage kobs at 640 uM GlcN6P [5] [s⁻¹] | self-cleavage kobs at 2500 uM GlcN6P [6] [s⁻¹] | self-cleavage kobs at 10000 uM GlcN6P [7] [s⁻¹] |
| --- | --- | --- | --- | --- | --- | --- | --- |
| A39G C67A | 0.00703 ± 0.003 | – | 0.000425 ± 7.2e-05 | – | 0.00288 ± 0.00088 | – | 0.00689 ± 0.0015 |
| A39G C67U | 0.00597 ± 0.0013 | 979 ± 370 | 0.00033 ± 5.8e-05 | 0.000762 ± 0.00016 | 0.00216 ± 0.00033 | 0.00338 ± 0.0007 | 0.00666 ± 0.00089 |
| G37A U45A | 0.00537 ± 0.00043 | 1760 ± 210 | 0.000126 ± 1.4e-05 | 0.000452 ± 8.9e-05 | 0.00131 ± 0.00021 | 0.0027 ± 0.0006 | 0.00477 ± 0.00049 |
| G38A U69G | 3.24e-05 ± 5.7e-06 | – | – | – | – | 3.53e-05 ± 1.3e-05 | – |
| A39C C71U | 0.00106 ± 0.00018 | 1570 ± 470 | 4.78e-05 ± 7.5e-06 | 9.02e-05 ± 1.2e-05 | 0.000275 ± 3.1e-05 | 0.000738 ± 8.5e-05 | 0.000904 ± 7.4e-05 |
| C34G C50G G62A | 2.47e-05 ± 3.6e-06 | – | – | – | – | – | – |
| G37A U65C | 0.000108 ± 1.4e-05 | 2300 ± 1100 | – | – | – | 6.65e-05 ± 1.7e-05 | 8.61e-05 ± 1.1e-05 |
| A39G G41A | 0.00311 ± 0.00078 | 3870 ± 1400 | 4.23e-05 ± 8.3e-06 | 8.83e-05 ± 2.3e-05 | 0.000475 ± 9.1e-05 | 0.00153 ± 0.00033 | 0.00217 ± 0.0003 |
| A39G G41C | 4.55e-05 ± 7.4e-06 | – | < 1e-05 | – | – | 5.57e-05 ± 1.5e-05 | 3.84e-05 ± 1.2e-05 |
| C34U C58A | < 1e-05 | – | < 1e-05 | – | < 1e-05 | < 1e-05 | – |
| C34U C58G | < 1e-05 | – | – | – | – | – | < 1e-05 |
| G38C G40A | < 1e-05 | – | – | < 1e-05 | – | – | < 1e-05 |
| G37A G44U A53U | 9.52e-05 ± 3e-05 | – | – | – | – | 6.43e-05 ± 1.9e-05 | 7.31e-05 ± 2.3e-05 |
| G37A C67G | 1.61e-05 ± 2e-06 | – | – | – | – | – | – |
| G37A C67U | 0.000574 ± 0.0001 | 2310 ± 720 | – | 4.58e-05 ± 1.1e-05 | 0.000109 ± 1.5e-05 | 0.00036 ± 4.6e-05 | 0.000449 ± 4.9e-05 |
| G37A C67A | 0.000407 ± 4.2e-05 | 1680 ± 370 | – | – | 0.000119 ± 2e-05 | 0.000258 ± 4e-05 | 0.000336 ± 4.8e-05 |
| A39G A42C | 3.82e-05 ± 3.7e-06 | – | – | – | – | 3e-05 ± 1.4e-05 | 3.4e-05 ± 8e-06 |
| G37A U45G C70G | 1.07e-05 ± 4e-06 | – | – | – | – | – | – |
| G37A G44U | 8.09e-05 ± 2.1e-05 | – | – | < 1e-05 | – | 4.71e-05 ± 9.1e-06 | 5.95e-05 ± 2.3e-05 |
| G37U C70A | 1.53e-05 ± 2e-06 | – | – | – | – | – | – |
